Assay [1] deals with T1, FGFR1 expressed on Rh4-FR4ko cells (UniProt P11362 22-822, limits assumed).
T1 construct: whole, on cells; also called FGFR1 on Rh4 cells
In words: flow cytometry on Rh4-FR4ko cells, which express FGFR1 and FGFR2. Here is the method:
The cells were incubated for 1 h with nanobodies at 10 μM (A8, B1, B5, F8, mCh) followed by stimulation of FGFR4 with 50 nM FGF19 for 10 min. Control cells (C) were either not stimulated or stimulated with FGF19 in absence of the nanobodies. The cell lysates were analysed by western blot with anti phospho ERK1/2 antibody. Total Erk1/2 levels are shown as loading control.
Binding validation of selected phages, recombinant nanobodies and decorated liposomes was performed on Rh4-FR4 wt and Rh4-FR4ko cells. Specificity of selected phage clones binding to FGFR4 was determined by flow cytometry in 96-well plates (Becton Dickinson). Cell surface staining of Rh4-FR4 wt or Rh4-FR4ko cells was performed on ice in PBS supplemented with 1% FBS. 80 μL phages+20 μL PBS/1% milk were incubated on 1×10⁵ cells for 1 h on ice. […] Samples were analyzed after two washes by flow cytometry on a MACSQuant® cytometer (Miltenyi) and results were analyzed with FlowJo™ software (BD Biosciences, France). Phages displaying anti-mCherry nanobodies were used as negative control²⁴ and as positive control we used an anti-FGFR4 antibody (BT53, kindly provided by J. Khan lab, NCI, Bethesda, MD). For binding test of recombinant nanobodies, cells were detached with Accutase® (Stemcell Technologies) and washed with PBS. All following steps were performed on ice: 4×10⁵ cells were incubated with nanobody concentrations of 30 μg/ml for 1 h, washed once with PBS and incubated for an additional 30 min with anti His-tag FITC labeled antibody (LS-C57341, LSBioscience, diluted 1:10). The cells were washed once more with PBS and analyzed. Targeting liposomes were added at 0.5 mM final lipid concentration to cells in 96-well plates and incubated for 2 h at 37° C. and 5% CO₂. The cells were washed twice with PBS and detached with Accutase®.
Validation of the binding of recombinant nanobodies to cell-surface expressed FGFR4 was performed with Rh4-FR4 wt and Rh4-FR4ko cells by flow cytometry.
Background: In flow cytometry, cells or beads pass a laser one at a time.

For assay [2], the target named is T2, Recombinant FGFR4 (G&P Biosciences) (human, UniProt P22455 22-369).
T2 construct: Bought protein; the SPR method says only 'Recombinant; also called rFGFR4; extracellular FGFR4
T2 sequence: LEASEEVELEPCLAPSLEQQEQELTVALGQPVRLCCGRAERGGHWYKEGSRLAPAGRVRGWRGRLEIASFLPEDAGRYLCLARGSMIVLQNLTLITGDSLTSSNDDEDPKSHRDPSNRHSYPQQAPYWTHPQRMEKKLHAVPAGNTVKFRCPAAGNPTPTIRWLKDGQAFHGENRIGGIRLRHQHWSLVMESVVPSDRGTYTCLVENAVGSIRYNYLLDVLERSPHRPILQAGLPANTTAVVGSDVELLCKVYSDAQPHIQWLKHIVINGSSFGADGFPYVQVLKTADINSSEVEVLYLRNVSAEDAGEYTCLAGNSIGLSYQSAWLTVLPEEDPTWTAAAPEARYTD
Description: SPR (BIAcore T200), single cycle kinetics, FGFR4 amine-immobilised, nanobody as analyte, heterogeneous ligand model, component 1 (kon1). The procedure:
(§1) FIG. 3: Affinity determination of nanobodies to recombinant protein via surface plasmon resonance spectroscopy. Single cycle kinetics analysis was performed on immobilized FGFR4 through covalent amine binding on the dextran based sensor chip. The analytes A8, B1, B5, F8 and mCh were injected in 5 different concentrations followed by a dissociation phase. A final dissociation step was added after the last injection step to determine Koff rates for the KD calculations. The black curves represent the measured data and red curves show the fit analysis (heterogeneous ligand model) performed with the BIAevaluation software.
(§2) Single cycle kinetics analysis was performed with the BIAcore® T200 instrument (GE Healthcare) on CMD200M sensor chips (XanTec bioanalytics GmbH) activated with a mixture of 300 mM NHS (N-hydroxysuccinimide) and 50 mM EDC (N-ethyl-N′-(dimethylaminopropyl) carbodiimide). Recombinant FGFR1, FGFR2, FGFR3 and FGFR4 (G&P Biosciences) were immobilized on the activated biosensors (800 to 12′000 RU; 1 RU=1 pg/mm²) followed by a blocking step with 1M ethanolamine. One flow channel per chip was used as a reference to provide background corrections. The nanobodies were injected at 5 different concentrations followed by a dissociation phase. Koff-rates were determined from a final dissociation step after the last injection. The measurements with FGFR4 were performed for each nanobody on freshly immobilized protein due to strong binding and incomplete dissociation from the surface. Immobilization flow rate was 5 μl/min and binding studies were performed at 30 μl/min. Binding parameters were determined with the heterogeneous ligand model fit of the BIAevaluation software. The black curves represent the measured data and red curves show the performed fit analysis.
(§3) To determine the binding affinity of the nanobodies to FGFR4, we performed surface plasmon resonance (SPR) spectroscopy with recombinant FGFR4. As already mentioned above, FGFR1 and FGFR2 are expressed on Rh4-FR4ko cells and flow cytometry analysis indicated no binding of the nanobodies to the cells. To further confirm FGFR4-specificity, we included also affinity measurements with recombinant FGFR1, FGFR2 and FGFR3. Nanobodies A8, B1, B5, F8, and mCh were injected in five different concentrations on a FGFR coated chip.
A general note: In SPR one partner is held on a chip, and binding of the other changes the refractive index at the surface.

Assay [3] has as its target T2, Recombinant FGFR4 (G&P Biosciences). In words: SPR (BIAcore T200), single cycle kinetics, FGFR4 amine-immobilised, nanobody as analyte, heterogeneous ligand model, component 1 (koff1). The procedure: as §1, §2
(§4) To determine the binding affinity of the nanobodies to FGFR4, we performed surface plasmon resonance (SPR) spectroscopy with recombinant FGFR4. As already mentioned above, FGFR1 and FGFR2 are expressed on Rh4-FR4ko cells and flow cytometry analysis indicated no binding of the nanobodies to the cells. […]

Assay [4] has the same target. Description: SPR (BIAcore T200), single cycle kinetics, FGFR4 amine-immobilised, nanobody as analyte, heterogeneous ligand model, component 2 (KD2). The procedure:
as §1, §2, §3

Assay [5] has the same target. In words: SPR (BIAcore T200), single cycle kinetics, FGFR4 amine-immobilised, nanobody as analyte, heterogeneous ligand model, component 1 (KD1). Here is the method: as §1, §2, §3
Assay [6] has the same target. Description: SPR (BIAcore T200), single cycle kinetics, FGFR4 amine-immobilised, nanobody as analyte, heterogeneous ligand model, component 2 (koff2). Here is the method:
as §1, §2, §4

The term kon denotes the second-order rate constant of association. One may read the koff as a measure of how fast the partners let go of each other. In general, Kd refers to the constant that tells how readily two partners part at equilibrium.

B1: B5 nanobody (anti-FGFR4 sdAb, NaLi-H1 library) (VHH)
VHH: EVQLQASGGGFVQPGGSLRLSCAASGRTSWLTTMGWFRQAPGKEREFVSAISSFSSKQGYYADSVKGRFTISRDNSKNTVYLQMNSLRAEDTATYYCAYASYPRHQGNGRWKDFVEYWGQGTQVTVSS
notes: Recombinant nanobody of about 17 kDa; also called B5 sdAb; not shown: C-terminal Myc/6xHis-tag and an additional cysteine
For B1, in assay [1], the binding result is “no binding (tested: 30 µg/ml)”. Besides, the kon in assay [2] came to 1.84e+06 M⁻¹ s⁻¹. Besides, the koff in assay [3] came to 0.000566 s⁻¹. For the same molecule, the dissociation constant Kd in assay [4] worked out at 0.000216 nM; in assay [5] it was 308 pM.

B2: A8 nanobody (anti-FGFR4 sdAb, NaLi-H1 library) (VHH)
VHH: EVQLQASGGGFVQPGGSLRLSCAASGRTYSRDTMGWFRQAPGKEREFVSAISSRHSHTTYYADSVKGRFTISRDNSKNTVYLQMNSLRAEDTATYYCAEWDVFDMHYALPPMWYWGQGTQVTVSS
notes: also called A8 sdAb; not shown: C-terminal Myc/6xHis-tag and an additional cysteine
In the case of B2, in assay [1], the binding result was “no binding (tested: 30 µg/ml)”. Moreover, the koff in assay [6] stood at 0.00245 s⁻¹. The kon in assay [2] was determined as 314000 M⁻¹ s⁻¹. The values for the Kd in assay [4] and in assay [5] were 36.8 nM and 0.00422 pM, respectively.

B3: F8 nanobody (anti-FGFR4 sdAb, Gimli library) (VHH)
VHH: EVQLVESGGGLVQPGGSLRLSCAASGTGYALDDMGWVRQAPGKGLEWVSAISDDESMADYYADSVKGRFTISRDNSKNTVYLQMNSLRAEDTAVYYCASYKEYKYQSGHHYFAYRGQGTLVTVSS
notes: Recombinant nanobody of about 17 kDa; also called F8 sdAb; not shown: C-terminal Myc/6xHis-tag and an additional cysteine
With B3, the binding result in assay [1] is “no binding (tested: 30 µg/ml)”. For the same molecule, the koff in assay [6] was 0.00557 s⁻¹; in assay [3], 1.04e-06 s⁻¹. Also, the kon in assay [2] was determined as 54500 M⁻¹ s⁻¹. The Kd came to 4.14 nM in assay [4] and 19.1 pM in assay [5].

B4: B1 nanobody (anti-FGFR4 sdAb, NaLi-H1 library) (VHH)
VHH: EVQLQASGGGFVQPGGSLRLSCAASGYTSRSSAMGWFRQAPGKEREFVSAISDLTGYPYYYADSVKGRFTISRDNSKNTVYLQMNSLRAEDTATYYCAAYQDDKWTYGSQHGKYWGQGTQVTVSS
notes: also called B1 sdAb; not shown: C-terminal Myc/6xHis-tag and an additional cysteine
Consider B4, for which the binding result in assay [1] was “no binding (tested: 30 µg/ml)”. Moreover, the koff turned out to be 0.000992 s⁻¹ in assay [6] and 1.18e-06 s⁻¹ in assay [3]. For the same molecule, the kon in assay [2] is 1.11e+06 M⁻¹ s⁻¹. Besides, the Kd in assay [4] was found to be 4.6 nM; in assay [5] it was 1.06 pM.

For the origin of these results see patent US20260191907A1 (INSTITUT CURIE, published 2026).
